The record followed here is US20130157289A1 (Genentech, published 2013).

Changes are numbered by the printed parent chain. Names may count otherwise.

The target in test [1] is T1, human STEAP-1 (human, UniProt Q9UHE8 1-339).
T1 construct: Six-transmembrane cell surface antigen; Exogenous full length STEAP-1 stably expressed in 293 cells (LB50, LB48, LB53) and PC3 cells (PS5.4); endogenous in LNCaP / LNCaP-BR cells; also called Six Transmembrane Epithelial Antigen of the Prostate 1
Put plainly: FACS of display-normalised Fab phage, aligned histograms; no cell name on the panel, traces as in FIG. 6A (LB50). As to the method:
Phage expressing Fab variants were first assessed for their Fab display level using an phage ELISA used to detect a […] fused to the light chain of the Fab. MaxiSorp microtiter plates were coated with anti-gD 1766 at 10 μg/ml in PBS over night and then blocked with Casein Blocker. Phage from culture supernatants were serially diluted in PBST containing 0.5% BSA in a tissue culture microtiter plate and transferred to the coated wells for 1 h to capture the Fab displaying phage. The plate was washed with PBST and HRP conjugated anti-M13 (Amersham Pharmacia Biotech) was added (1:5000 in PBST containing 0.5% BSA) for 40 min. The plate was washed with PBST and developed by adding Tetramethylbenzidine substrate (Kirkegaard and Perry Laboratories, Gaithersburg, Md.). The absorbance at 405 nm was used as an estimate of the Fab display level on the surface of the phage. Phage preparations were normalized for display by dilution. Low displaying phage (e.g. the chimera) were used neat for FACS analysis.
For FACS analysis of phage binding, cells were removed from the plate using 2 mM EDTA, collected in a 15 mL conical bottom tube and pelleted by centrifugation. Cells (5×10⁵ cells per sample) were re-suspended in 100 μL of phage (normalized by display level) in FACS buffer (1% FBS, PBS with 2 mM EDTA) and incubated for 1-2 hours on ice. Samples were washed twice with FACS buffer by centrifugation. Anti-M13 5G7 control antibody (Genentech, Inc. South San Francisco, Calif.) was added at 2 μg/mL and incubated on ice for at least 45 minutes. Samples were washed twice with FACS buffer by centrifugation. A 1:200 dilution of anti-mouse PE (R-phycoerythrin goat anti-mouse IgG Fcy Fragment, Jackson Immunoresearch) was added and incubated on ice for 30 minutes. Samples were again washed twice with FACS buffer by centrifugation and analyzed by FACS.

For test [2], the target named is T1, human STEAP-1. Put plainly: Scatchard analysis on 293 STEAP-1 NT LB50 cells. From the text:
(§1) IgG was purified with Protein G affinity chromatography.

Test [3] has as its target T1, human STEAP-1. Put plainly: Scatchard analysis on LNCaP.BR cells, Assay 740; displacement curve and Scatchard plot.
Text: as §1

Test [4] deals with T1, human STEAP-1. Put plainly: Scatchard analysis on 293.LB50 cells, Assay 737; displacement curve and Scatchard plot.
Text: as §1

Test [5] addresses T1, human STEAP-1. Put plainly: Scatchard analysis on 293-LB50 cells, average value.
Text: as §1

Test [6] addresses T1, human STEAP-1. Put plainly: Scatchard analysis on LNCaP-BR cells, average value.
Text: as §1

The target of test [7] is T1, human STEAP-1. Put plainly: Scatchard analysis on 293.LB50 cells, Assay 738; displacement curve and Scatchard plot.
Text: as §1

Test [8] addresses T1, human STEAP-1. Nature of the test: Scatchard analysis on LNCaP.BR cells, Assay 739; displacement curve (Bound/Total against Total, nM) and Scatchard plot (Bound/Free against Bound, pM).
Text: as §1

Test [9] concerns the target T1, human STEAP-1. Put plainly: Scatchard analysis on 293 cells transiently expressing human STEAP-1 (293-Transient Human Steap1).
Text: as §1

In test [10] the target is T2, cynomolgus monkey STEAP-1 (cynomolgus monkey, UniProt Q9UHE8 1-339 (human entry)).
T2 construct: the expressing cell line is not described; also called cyno STEAP-1
T2 sequence (Q9UHE8 other isoform, or with tags, fused parts or gaps): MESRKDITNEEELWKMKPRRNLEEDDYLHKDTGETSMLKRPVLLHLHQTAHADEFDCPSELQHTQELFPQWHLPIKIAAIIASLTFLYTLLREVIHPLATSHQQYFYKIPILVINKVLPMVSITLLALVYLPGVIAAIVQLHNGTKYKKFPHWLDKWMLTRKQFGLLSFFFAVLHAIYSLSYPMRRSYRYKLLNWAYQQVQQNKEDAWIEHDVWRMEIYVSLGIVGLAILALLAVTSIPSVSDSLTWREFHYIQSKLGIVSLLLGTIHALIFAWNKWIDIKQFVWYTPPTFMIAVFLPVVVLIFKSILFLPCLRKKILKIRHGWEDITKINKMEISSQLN
Put plainly: Scatchard analysis on 293 cells transiently expressing cynomolgus STEAP-1 (293-Transient Cyno Steap1); side note: Same Affinity for Human & Cyno.

T1 sequence (Q9UHE8 other isoform, or with tags, fused parts or gaps): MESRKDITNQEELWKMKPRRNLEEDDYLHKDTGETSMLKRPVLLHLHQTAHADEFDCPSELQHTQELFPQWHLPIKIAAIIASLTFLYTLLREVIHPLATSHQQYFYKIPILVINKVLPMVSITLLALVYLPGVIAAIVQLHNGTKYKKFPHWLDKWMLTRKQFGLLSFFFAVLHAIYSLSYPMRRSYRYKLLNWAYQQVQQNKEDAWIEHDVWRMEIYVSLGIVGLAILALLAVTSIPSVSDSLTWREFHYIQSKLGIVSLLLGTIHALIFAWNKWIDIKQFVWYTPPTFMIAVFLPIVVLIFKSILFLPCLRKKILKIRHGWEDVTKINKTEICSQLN

B1: 37 Phage (Fab, V domains shown)
VH: EVQLVESGGGLVQPGGSLRLSCAASGYSITSDYAWNWIRQAPGKGLEWVGYISNSGSTSYNPSLKSRFTISRDNSKNTLYLQMNSLRAEDTAVYYCARERNYDYDDYYYAMDYWGQGTLVTVSS
VL: DIQMTQSPSSLSASVGDRVTITCKSSQSLLYRSNQKNYLAWYQQKPGKAPKLLIYWASTRESGVPSRFSGSGSGTDFTLTISSLQPEDFATYYCQQYYNYPRTFGQGTKVEIKR
notes: monovalent Fab-g3 phage display; also called V37I variant of the 120 graft
In the case of B1, the binding result with human STEAP-1 [1] was “binds”.

B2: humanized anti-STEAP-1 120v.24 (antibody, name in Kabat numbering, V domains shown)
VH: B1 VH with A24V, I38V
VL: B1 VL
notes: constant regions not specified; also called humanized 120v.24 (clone 67); humanized version 24
With B2, the “fold improvement in Kd over the 120 chimera and murine M2-120.545” value in the test with human STEAP-1 [2] was 2 fold.

B3: 48 Phage (Fab, V domains shown)
VH: B1 VH with I38V, V49M
VL: B1 VL
notes: monovalent Fab-g3 phage display; also called V48M variant of the 120 graft
As to B3, the binding result with human STEAP-1 [1] was “binds”.

B4: 67 Phage (Fab, V domains shown)
VH: B1 VH with I38V, F68I
VL: B1 VL
notes: monovalent Fab-g3 phage display; also called F67I variant of the 120 graft
As for B4, in the test with human STEAP-1 [1], the binding result is reported as “binds”.

B5: Original Thio 120V24 (antibody, V domains shown)
VH: B1 VH with A24V, I38V
VL: B1 VL
notes: cysteine engineered form of humanized 120.v24; also called Orig Thio PUR 12813; Thio Mab
Usually Kd stands for the concentration at which binding is half-saturated. Take B5: the Kd in the test with human STEAP-1 [3] worked out at 1.7 nM; with human STEAP-1 [4], 1.7 nM; with human STEAP-1 [5], 1.9 nM; with human STEAP-1 [6], 1.4 nM; with human STEAP-1 [7], 2 nM; with human STEAP-1 [8], 1.1 nM. The Kd in the test with human STEAP-1 [9] came out at 1.4 nM; in test [10], 1.1 nM.
